Values belong to the binder of their own block, whether it stands above or below them.
Assays:
[1] = target: human CLDN18.2 expressed on cell surfaces (human) (UniProt P56856); assay: cell-based or functional assay
[2] = target: human CLDN18.1 expressed on cell surfaces (human) (UniProt P56856); assay: cell-based or functional assay
[3] = target: T1, antigen human CLDN18.2, His-tagged (human, UniProt P56856-2 1-261, limits assumed); assay: SPR (BIAcore), antibody captured by anti-human Fc, antigen as analyte
T1 construct: Recombinant antigen used in the Fortebio assay (His-tagged, captured on NTA probe); also called His-tagged antigen; not shown: His tag
Experimental: Referring to the instructions provided in the Human Antibody Capture Kit (cat No. BR-1008-39, Lot 10261753) from GE Healthcare, the analytical channel and the control sample channel on a CM5 sensor chip were first saturated and coupled with the maximum amount of anti-human Fc antibody, then buffers containing anti-human CLDN18.2 chimeric antibodies, humanized antibodies or a control antibody IMAB362 at 7.5 μg/ml were allowed to flow through the analytical channel and uniformly distribute. Finally, antigen samples diluted in gradient (the initial concentration was 20 nM and diluted by 1:3 to get 8 concentrations, and the concentration 0.741 nM was set to be repeated) were allowed to flow through both the analytical channel and the sample channel, and the photoreactions upon the binding of antibody to antigen were measured. Subsequently, the association constant Kon and dissociation constant Koff and affinity constant KD of each antibody were finally obtained by instrument software fitting analysis.

[4] = target: T2, human CLDN18.2 expressed on cell surfaces (human, UniProt P56856-2 1-261); assay: cell-based or functional assay
[5] = target: T2, human CLDN18.2 expressed on cell …; assay: cell-based or functional assay; remark: listed apart in the source
[6] = target: T1, antigen human CLDN18.2, His-tagged; assay: BLI (Fortebio), His-tagged antigen on NTA probe, 100 nM antibody, 1:1 fit
Experimental: (§1) The binding kinetic parameters of the chimeric antibodies and the humanized antibodies thereof to the antigen human CLDN18.2 were analyzed by a Fortebio (BLITZ pro1.1.0.28) instrument. Before performing the assay, an NTA bioprobe was soaked in PBS for 10 min, and the probe was then placed in PBS containing 100 nM antigen for 300 s to capture the His-tagged antigen. The probe was further subjected to a binding reaction with 100 nM antibody for a binding time of 400 s, and the probe was then transferred to PBS and subjected to a dissociation reaction for 600 s. When the assay was finished, data from which the response value of a blank control had been deducted were fitted to a 1:1 Langmuir binding model using software, and then the kinetic constants for antigen-antibody binding were calculated.

[7] = target: T1, antigen human CLDN18.2, His-tagged; assay: BLI (Fortebio), His-tagged antigen on NTA probe; ratio to 16K15-xiIgG
Experimental: as §1

B1: 8K13 (8K13-hz24) scfv, as CAR on T cells (scFv, not shown: small tags and cut ends)
scFv: QVQLVQSGAEVKKPGSSVKVSCKASGYAFSNYWMNWVRQAPGQGLEWMGQIYPGSGDTKYSGKFQSRVTITADKSTNTAYMELSSLRSEDTAVYYCARFYYGNVMDYWGQGTLVTVSSGSTSGGGSGGGSGGGGSSDIVLTQSPDSLAVSLGERATINCKSSQTLLSGGNQKNYLTWYQQKPGQPPKLLIYWASTRESGVPDRFSGSGSGTDFTLTISSLQAEDLAVYYCQQGYSYPLTFGQGTKLEIK
Human IFNγ detected in the supernatants of the culture systems (CAR-T cells with CHO-claduin18.2) [1]: 75500 | Human IFNγ detected in the supernatants of the culture systems (CAR-T cells with CHO-claduin18.1) [2]: 4670

B4: 16K15-hz22 (antibody, human IgG1, V domains shown)
VH: EVQLVESGGGLVQPGGSLRLSCAGSGITLSTYAMSWVRQAPGKGLEWVSSIISGGITYYLDSVKGRFTISRDNAKNTLYLQMSSLRAEDTAVYYCARKYHGNALDYWGQGTLVTVSS
VL: DIVMTQSPDSLAVSLGERATINCKSSQSLLSSGNQRNYLTWYQQKPGQPPKKLIYWASTRESGVPDRFSGSGSGTDFTLTISSLQAEDLAVYYCQNNYFYPLTFGQGTKLEIK
notes: Humanized; also called 16K15-hz22 IgG; 16K15-22 IgG
Kd [3]: 9.85 nM | koff [3]: 0.000563 s⁻¹ | kon [3]: 57100 M⁻¹ s⁻¹ | ADCC reporter EC50 (Jurkat NFAT-luciferase effector cells), BxPC3 target cells [4]: 0.176 nM | ADCC reporter EC50 (Jurkat NFAT-luciferase effector cells), CHOK1 target cells [4]: 0.712 nM | ADCC reporter EC50 (Jurkat NFAT-luciferase effector cells), NCI-N87 target cells [4]: 0.0677 nM | CDC EC50, BxPC3 cells stably expressing human CLDN18.2 (CCK-8) [5]: 12.2 nM | CDC EC50, CHOK1 cells stably expressing human CLDN18.2 (CCK-8) [5]: 5.2 nM | CDC EC50, NCI-N87 cells stably expressing human CLDN18.2 (CCK-8) [5]: 17.4 nM | Kd [6]: 1.1 nM | Response [6]: 0.266 | koff [6]: 0.000286 s⁻¹ | kon [6]: 259000 M⁻¹ s⁻¹ | Koff/Koff(Xi-IgG) [7]: 1.86

Results, then the binder that gave them:

Human IFNγ detected in the supernatants of the culture systems (CAR-T cells with CHO-claduin18.2) [1]: 78900 | Human IFNγ detected in the supernatants of the culture systems (CAR-T cells with CHO-claduin18.1) [2]: 4540
B2: 52E22 (52E22-hz12) scfv, as CAR on T cells (scFv, not shown: small tags and cut ends)
scFv: QIQLVQSGSELKKPGASVKVSCKASGYTLTNYGMNWVRQAPGQGLEWMGWIRPNTGEPTYAEDFKGRFVFSLDTSVATAYLQITSLKAEDTAVYYCARLYRGNTLDNWGQGTLVTVSSGSTSGGGSGGGSGGGGSSDIVMTQSPDSLAVSLGERATINCKSSQNLLSSGNQRNYLTWYQQKPGQPPKLLIYWASTRESGVPDRFSGSGSGTDFTLTISSLQAEDLAVYYCQQGYSFPFTFGQGTKLEIK

Human IFNγ detected in the supernatants of the culture systems (CAR-T cells with CHO-claduin18.2) [1]: 79200 | Human IFNγ detected in the supernatants of the culture systems (CAR-T cells with CHO-claduin18.1) [2]: 60300
B3: 16k15 (16K15-hz22) scfv, as CAR on T cells (scFv, not shown: small tags and cut ends)
scFv: EVQLVESGGGLVQPGGSLRLSCAGSGITLSTYAMSWVRQAPGKGLEWVSSIISGGITYYLDSVKGRFTISRDNAKNTLYLQMSSLRAEDTAVYYCARKYHGNALDYWGQGTLVTVSSGSTSGGGSGGGSGGGGSSDIVMTQSPDSLAVSLGERATINCKSSQSLLSSGNQRNYLTWYQQKPGQPPKKLIYWASTRESGVPDRFSGSGSGTDFTLTISSLQAEDLAVYYCQNNYFYPLTFGQGTKLEIK

From US20230250168A1 (MABWELL SHANGHAI BIOSCIENCE, published 2023)
